Data from PMC7585440, “Sclerostin inhibits Wnt signaling through tandem interaction with two LRP6 ectodomains” (Nature Communications, 2020).

Legend:
[1] = biological target: T1, human LRP6 E1E2 with a C-terminal 10× His tag, labeled with the dye NT-647 (human, UniProt O75581 21-630, dye NT-647 (Monolith NT Protein Labeling kit)); experiment: MST; LRP6 E1E2 or E1 labeled with NT-647 at ~5 nM, unlabeled SOST proteins or peptides titrated; 20 mM Tris-Cl pH 7.0, 200 mM NaCl, 0.5 mg/ml BSA, 0.05% Tween 20; 22 °C; Monolith NT.115 Pico; conditions: both partners purified
T1 construct: Low-density lipoprotein receptor-related protein 6 (LRP6), human, ectodomains E1 and E2; the limits P21-P630 are printed for the co-expression construct; the MST construct was cloned into another vector (pAcGP67A); also called Labeled LRP6 E1E2; source: High Five insect cells (pAcGP67A), purified (Ni-NTA, HiTrapQ, SEC), no tag cleavage; not shown: His10, C-terminal, kept
T1 sequence (looked up): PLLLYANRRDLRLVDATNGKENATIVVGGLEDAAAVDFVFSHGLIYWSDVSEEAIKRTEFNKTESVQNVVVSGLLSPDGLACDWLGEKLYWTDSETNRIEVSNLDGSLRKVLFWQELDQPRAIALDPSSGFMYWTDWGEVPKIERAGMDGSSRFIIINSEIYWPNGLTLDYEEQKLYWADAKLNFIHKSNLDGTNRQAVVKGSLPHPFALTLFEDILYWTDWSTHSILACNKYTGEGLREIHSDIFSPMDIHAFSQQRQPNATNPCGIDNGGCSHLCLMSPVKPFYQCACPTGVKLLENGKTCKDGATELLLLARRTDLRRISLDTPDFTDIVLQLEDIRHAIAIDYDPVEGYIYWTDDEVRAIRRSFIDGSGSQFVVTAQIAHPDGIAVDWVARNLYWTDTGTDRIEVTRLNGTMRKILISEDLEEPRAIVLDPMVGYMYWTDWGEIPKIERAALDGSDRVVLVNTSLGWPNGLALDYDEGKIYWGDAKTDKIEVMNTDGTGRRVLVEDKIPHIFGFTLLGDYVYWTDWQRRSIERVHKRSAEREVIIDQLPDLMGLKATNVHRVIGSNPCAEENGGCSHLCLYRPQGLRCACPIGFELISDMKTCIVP

[2] = biological target: T2, human LRP6 E1E2 (P21–P630) with a C-terminal 10× His tag (human, UniProt O75581 21-630); experiment: SEC; fluorescence-SEC: purified LRP6 E1E2–Smo-SOST complex injected at 1.5, 1, 0.5 or 0.1 µM on Superdex 200 Increase 10/300 GL; 20 mM Tris pH 7.0, 200 mM NaCl; intrinsic tryptophan fluorescence; approximate KD; conditions: both partners purified
T2 construct: Low-density lipoprotein receptor-related protein 6 (LRP6), human, ectodomains E1 and E2, residues P21-P630; Unlabelled form: crystal, SEC-MALS and fluorescence-SEC; An anti-His-tag antibody was used for the western blots of the fluorescence-SEC experiment; also called LRP6 ectodomains 1 and 2; source: High Five insect cells (baculovirus), secreted, purified (Ni-NTA, HiTrapQ, SEC); co-expressed …
T2 sequence (looked up): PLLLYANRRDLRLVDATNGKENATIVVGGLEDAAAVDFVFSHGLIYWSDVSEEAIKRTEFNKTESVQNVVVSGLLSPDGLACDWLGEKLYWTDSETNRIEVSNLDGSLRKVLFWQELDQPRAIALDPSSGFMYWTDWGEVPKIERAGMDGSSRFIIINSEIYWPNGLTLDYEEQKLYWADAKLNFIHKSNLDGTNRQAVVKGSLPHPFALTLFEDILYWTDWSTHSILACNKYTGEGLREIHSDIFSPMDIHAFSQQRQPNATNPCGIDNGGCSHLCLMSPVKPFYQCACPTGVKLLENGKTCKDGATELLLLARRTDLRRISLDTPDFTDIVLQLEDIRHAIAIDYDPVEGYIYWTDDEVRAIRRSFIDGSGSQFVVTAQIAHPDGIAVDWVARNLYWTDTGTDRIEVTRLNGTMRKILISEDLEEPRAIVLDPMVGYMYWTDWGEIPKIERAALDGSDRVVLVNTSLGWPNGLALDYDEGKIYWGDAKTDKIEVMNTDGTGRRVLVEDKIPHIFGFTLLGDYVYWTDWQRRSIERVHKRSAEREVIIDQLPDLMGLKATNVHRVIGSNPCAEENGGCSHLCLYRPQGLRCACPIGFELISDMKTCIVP

B1: human WT SOST with an N-terminal His6-SUMO tag (natural protein, UniProt Q9BQB4 24-213, looked up)
chain: QGWQAFKNDATEIIPELGEYPEPPPELENNKTMNRAENGGRPPHHPFETKDVSEYSCRELHFTRYVTDGPCRSAKPVTELVCSGQCGPARLLPNAIGRGKWWRPSGPDFRCIPDRYRAQRVQLLCPGGEAPRARKVRLVASCKCKRLTRFHNQSELKDFGTEAARPQKGRKPRPRARSAKANQAELENAY
notes: Sclerostin (SOST), human, wild type; Probably residues 24-213 (the truncated constructs begin at Q24 and the protein ends at Y213); Purified WT SOST ran as a doublet that PNGase F turned into one band (N175 likely glycosylated in part); also called Smo-SOST; SOST WT; source: High Five insect cells (pAcGP67A), purified (Ni-NTA, HiTrapQ, SEC), no tag cleavage; not shown: His6, N-terminal, kept; …
- Kd [1]: 170 nM
- Kd [2]: ~50 nM
